One substance from patent publication US20180196058A1 can be followed below.

The experiment concerns the target Recombinant human IFN-gamma (eBioscience) (human) (UniProt P01579). Put plainly: sandwich on beads, LC MS/MS of released iCOREs; IFN-gamma iCORE peak against the peak of the iCORE on the anti-TNF-alpha detection antibody.

Sequence of Recombinant human IFN-gamma (eBioscience) (human) (P01579 24-166 limits assumed): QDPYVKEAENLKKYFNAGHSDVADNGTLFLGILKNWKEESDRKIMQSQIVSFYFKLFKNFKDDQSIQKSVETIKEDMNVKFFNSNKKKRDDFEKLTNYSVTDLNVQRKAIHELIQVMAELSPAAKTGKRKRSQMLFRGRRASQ

Turning to “iCORE-labeled detection antibody against human IFN-gamma, clone 4S.B3 (eBioscience)”, the signal to noise stood at 10.
